Usually Kd stands for the concentration at which binding is half-saturated.

Read-outs that look alike come from different tables or passages of the source. Bridges are numbered along the chain shown (N, C = ends). Where no end group is shown, it is not given here. [ ]: non-standard residue; d: D form. The star is where a group is joined. FITC = O=C1OC2(c3ccc(O)cc3Oc3cc(O)ccc32)c2ccc(NC(=S)*)cc21; S5 = C=CCCC[C@](C)(N)C(=O)O; Nle = CCCC[C@H](N)C(=O)O

From US20160068834A1 (published 2016) come the findings set out here.

In one experiment the target is purified EED (Example 6) (UniProt O75530 1-441). The experiment is described as follows: competitive fluorescence polarization; competition against FITC-EZH2(42-68).
Chain of purified EED (Example 6) (O75530 whole entry): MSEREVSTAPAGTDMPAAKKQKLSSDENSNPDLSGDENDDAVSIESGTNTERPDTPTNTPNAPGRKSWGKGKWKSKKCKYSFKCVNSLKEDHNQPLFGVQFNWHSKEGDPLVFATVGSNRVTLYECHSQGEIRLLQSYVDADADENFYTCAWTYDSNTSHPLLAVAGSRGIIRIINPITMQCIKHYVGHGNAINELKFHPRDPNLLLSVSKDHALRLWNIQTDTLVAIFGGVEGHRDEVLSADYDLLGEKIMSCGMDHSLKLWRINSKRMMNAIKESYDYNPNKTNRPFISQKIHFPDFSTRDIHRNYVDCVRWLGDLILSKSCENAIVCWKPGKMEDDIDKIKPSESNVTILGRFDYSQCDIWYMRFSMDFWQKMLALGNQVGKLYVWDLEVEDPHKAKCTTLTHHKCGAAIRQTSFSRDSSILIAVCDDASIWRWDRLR
The target of experiment [1] is T1, C-terminal His-tagged EED (His-EED) (UniProt O75530 1-441). Briefly: fluorescence polarization. (In general: Fluorescence polarisation rises when a labelled molecule tumbles more slowly, as on binding a larger partner.)
T1 sequence (O75530 whole entry): as above
Experiment [2] deals with T1, C-terminal His-tagged EED (His-EED). Briefly: fluorescence polarization. This is another data set of the same source.

B1: acetyl-SAH-EZH2 (peptide)
peptide: Ac-FSSNR[S5]KIL[S5]RTQILNQEWKQRRIQPV
modifications: staple 6-10
As for B1, the Kd with purified EED (Example 6) is 1.13 µM.

B2: FITC-SAH-EZH2A(42-68)E54Q/E59Q (peptide)
peptide: {FITC}-FSSNR[S5]KIL[S5]RTQILNQQWKQRRIQPV
modifications: staple 6-10
Consider B2, for which the Kd in experiment [1] is above 10 µM.

B3: FITC-SAH-EZH2B(42-68) (peptide)
peptide: {FITC}-FSSNRQKILERT[S5]ILN[S5]EWKQRRIQPV
modifications: staple 13-17
B3: the Kd in experiment [2] was found to be 0.528 µM.

B4: FITC-SAH-EZH2A(42-68)E54Q (peptide)
peptide: {FITC}-FSSNR[S5]KIL[S5]RTQILNQEWKQRRIQPV
modifications: staple 6-10
In experiment [1], B4 gave a Kd of 0.32 µM.

B5: acetyl-SAH-EZH2(42-68)AC (peptide)
peptide: Ac-FSSNR[S5]KIL[S5]RT[S5]ILN[S5]EWKQRRIQPV
modifications: staple 6-10, 13-17
Turning to B5, the Kd with purified EED (Example 6) amounted to 0.65 µM.

B6: FITC-SAH-EZH2A(40-68) (peptide)
peptide: {FITC}-S[Nle]FSSNR[S5]KIL[S5]RTEILNQEWKQRRIQPV
modifications: staple 8-12
In experiment [2], B6 gave an equilibrium dissociation constant (Kd) of 0.333 µM.

B7: FITC-SAH-EZH2B(40-68) (peptide)
peptide: {FITC}-S[Nle]FSSNRQKILERT[S5]ILN[S5]EWKQRRIQPV
modifications: staple 15-19
In turn, B7 had a Kd in experiment [2] of 0.264 µM.

B8: FITC-SAH-EZH2A(42-68) (peptide)
peptide: {FITC}-FSSNR[S5]KIL[S5]RTEILNQEWKQRRIQPV
modifications: staple 6-10
As for B8, in experiment [2], binding was characterised by a dissociation constant (Kd) of 0.468 µM.
